These results are taken from patent US20260146097A1.

First the molecules themselves.
T1: human IL2Rbeta-Avi protein (R&D Systems) (human) (UniProt P14784)
T1 sequence (looked up): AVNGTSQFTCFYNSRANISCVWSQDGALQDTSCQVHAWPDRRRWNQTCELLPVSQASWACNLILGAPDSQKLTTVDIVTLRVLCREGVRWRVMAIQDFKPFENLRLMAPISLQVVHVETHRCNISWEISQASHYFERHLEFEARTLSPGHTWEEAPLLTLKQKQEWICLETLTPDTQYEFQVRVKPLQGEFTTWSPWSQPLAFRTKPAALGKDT

B1: Wild-type anti-IL2Rbeta VH in the multi-specific format (anti-LAG3 and a single anti-IL2Rgamma/anti-IL2Rbeta unit) (protein, part only; not given: rest of multi-specific format, part only)
VH: EVQLVQSGAEVKKPGACVKISCKVSGYTFTDYYMHWVQRAPGKGLEWIGLVDPEDGETIYAEKFQGRVTITADTSTDTAYMELCSLRSEDTAVYYCATDFVKLDFSLSFQHWGQGTLVTVSS
B2: Anti-IL2Rbeta VH modification D31K in the multi-specific format (protein, part only; not given: Rest of multi-specific format, not shown: another chain or arm of the molecule; a dimerising Fc or GST; small tags and cut ends)
VH: EVQLVQSGAEVKKPGACVKISCKVSGYTFTKYYMHWVQRAPGKGLEWIGLVDPEDGETIYAEKFQGRVTITADTSTDTAYMELCSLRSEDTAVYYCATDFVKLDFSLSFQHWGQGTLVTVSS
B3: Anti-IL2Rbeta VH modification E53S in the multi-specific format (protein, part only; not given: Rest of multi-specific format, not shown: another chain or arm of the molecule; a dimerising Fc or GST; large carriers; small tags and cut ends)
VH: EVQLVQSGAEVKKPGACVKISCKVSGYTFTDYYMHWVQRAPGKGLEWIGLVDPSDGETIYAEKFQGRVTITADTSTDTAYMELCSLRSEDTAVYYCATDFVKLDFSLSFQHWGQGTLVTVSS
B4: Anti-IL2Rbeta VH modification Y32F in the multi-specific format (protein, part only; not given: Rest of multi-specific format, not shown: another chain or arm of the molecule; a dimerising Fc or GST; large carriers; small tags and cut ends)
VH: EVQLVQSGAEVKKPGACVKISCKVSGYTFTDFYMHWVQRAPGKGLEWIGLVDPEDGETIYAEKFQGRVTITADTSTDTAYMELCSLRSEDTAVYYCATDFVKLDFSLSFQHWGQGTLVTVSS
B5: Anti-IL2Rbeta VH modification D31Y in the multi-specific format (protein, part only; not given: Rest of multi-specific format, not shown: another chain or arm of the molecule; a dimerising Fc or GST; small tags and cut ends)
VH: EVQLVQSGAEVKKPGACVKISCKVSGYTFTYYYMHWVQRAPGKGLEWIGLVDPEDGETIYAEKFQGRVTITADTSTDTAYMELCSLRSEDTAVYYCATDFVKLDFSLSFQHWGQGTLVTVSS
B6: Anti-IL2Rbeta VH modification D31R in the multi-specific format (protein, part only; not given: Rest of multi-specific format, not shown: another chain or arm of the molecule; a dimerising Fc or GST; small tags and cut ends)
VH: EVQLVQSGAEVKKPGACVKISCKVSGYTFTRYYMHWVQRAPGKGLEWIGLVDPEDGETIYAEKFQGRVTITADTSTDTAYMELCSLRSEDTAVYYCATDFVKLDFSLSFQHWGQGTLVTVSS
B7: Anti-IL2Rbeta VH modification D31S in the multi-specific format (protein, part only; not given: Rest of multi-specific format, not shown: another chain or arm of the molecule; a dimerising Fc or GST; small tags and cut ends)
VH: EVQLVQSGAEVKKPGACVKISCKVSGYTFTSYYMHWVQRAPGKGLEWIGLVDPEDGETIYAEKFQGRVTITADTSTDTAYMELCSLRSEDTAVYYCATDFVKLDFSLSFQHWGQGTLVTVSS
B8: Anti-IL2Rbeta VH modification Y33F in the multi-specific format (protein, part only; not given: Rest of multi-specific format, not shown: another chain or arm of the molecule; a dimerising Fc or GST; large carriers; small tags and cut ends)
VH: EVQLVQSGAEVKKPGACVKISCKVSGYTFTDYFMHWVQRAPGKGLEWIGLVDPEDGETIYAEKFQGRVTITADTSTDTAYMELCSLRSEDTAVYYCATDFVKLDFSLSFQHWGQGTLVTVSS
B9: Anti-IL2Rbeta VH modification E53I in the multi-specific format (protein, part only; not given: Rest of multi-specific format, not shown: another chain or arm of the molecule; a dimerising Fc or GST; large carriers; small tags and cut ends)
VH: EVQLVQSGAEVKKPGACVKISCKVSGYTFTDYYMHWVQRAPGKGLEWIGLVDPIDGETIYAEKFQGRVTITADTSTDTAYMELCSLRSEDTAVYYCATDFVKLDFSLSFQHWGQGTLVTVSS

The target in one experiment is IL2Rs (IL2Rgamma/IL2Rbeta) on preactivated human PBMCs / CD8+ T cells (human) (UniProt P14784). The experiment can be described thus: cell-based or functional assay.
IgG Control (antibody): the pSTAT5 EMAX (Mean Fluorescence Intensity) (Mean Fluorescence Intensity) stood at 25000.

A further experiment deals with T1, human IL2Rbeta-Avi protein (R&D Systems) (human). Description: ELISA: variant captured by anti-human IgG-Fc, human IL2Rbeta-Avi, streptavidin-HRP.
Consider B1, for which the concentration giving a half-maximal response (EC50) (as a rule, the midpoint of the concentration-response curve) worked out at 0.65 µg/mL.
Regarding B2, the EC50 worked out at 0.4 µg/mL.
Still for that read-out and setting: to B3 belongs 0.3 µg/mL; to B4, 0.24 µg/mL; to B5, 0.24 µg/mL.
On the same count and under the same terms, to B6 belongs 0.13 µg/mL; to B7, 0.21 µg/mL.
Still for that read-out and setting: to B8 belongs 0.24 µg/mL; to B9, 0.3 µg/mL.
